Experimental data as given in publication PMC4894451 (Scientific Reports, 2014).

Target: the molecule itself
Test: SEC

B1: DepH from Chromobacterium violaceum No. 968 (enzyme)
chain: not shown
- stoichiometry N: 2
